This data set in a line: protein stability index of a GFP-peptide fusion (yeast GPS) (PSI 1-4); higher = more stable; sorted into four equal gates, so the index is relative within each strain. Put shortly:
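Plasmids in a pooled yeast library fused tiled 17-residue yeast protein peptides downstream of GFP and also expressed Cherry. Mid-log cultures grown without leucine were sorted into four equal gates by GFP/Cherry fluorescence ratio. Each gate's plasmids were PCR-amplified and Illumina-sequenced, and reads were matched to strains by barcodes. The protein stability index is derived by multiplying each gate's read frequency by its gate number and summing the results.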

± gives the uncertainty stated by the source.

ITLALSSNPNSSLHSPT [SRB4]: the protein stability index is 2.9 ± 0.067 (doa10∆), 2.99 ± 0.055 (pdr5∆), 2.91 ± 0.047 (san1∆) and 3.05 ± 0.044 (ubr1∆).
For ITLFVLVSVVEAFIASG [FAS2] the same measures were 1.53 ± 0.048, 1.41 ± 0.043, 2.06 ± 0.061 and 1.8 ± 0.051.
For ITMESVHEWEVSKPSLL [PRP8] the same measures were 3.29 ± 0.069, 3.29 ± 0.069, 3.29 ± 0.066 and 3.24 ± 0.056.
The matching figures for ITNDWEQPCVDIISGKI [YJR042W/NUP85]: 3.36 ± 0.078, 3.44 ± 0.066, 3.18 ± 0.053 and 3.02 ± 0.058.
As for ITRSFKEPRLVIVTDPR [RPS0A], the protein stability index by setting is: (doa10∆) 1.56 ± 0.2; (pdr5∆) 1.89 ± 0.13; (san1∆) 1.98 ± 0.14; (ubr1∆) 1.28 ± 0.13.
For IVDTSGRHHQEEELFQE [SRP54] the same measures were 3.31 ± 0.07, 3.13 ± 0.043, 3.07 ± 0.056 and 3.24 ± 0.053.
For the sequence IVGLATLIVNTDVEKSD [SRP21], the protein stability index (ubr1∆) is 3.69 ± 0.26.
For IVHSSDGHLQFLNDVIP [DLS1], the protein stability index by setting is: (doa10∆) 2.99 ± 0.082; (pdr5∆) 2.75 ± 0.077; (san1∆) 2.6 ± 0.16; (ubr1∆) 2.51 ± 0.088.
In the case of IVKNAEQHNLVKKGPVR [RPS20], the protein stability index reads like this: (doa10∆) 2.84 ± 0.058; (pdr5∆) 3.13 ± 0.066; (san1∆) 2.9 ± 0.072; (ubr1∆) 2.95 ± 0.078.
The matching figures for IVNGTEKVILVQEQLSK [RET1]: 1.54 ± 0.13, 2.22 ± 0.057, 1.53 ± 0.11 and 2.29 ± 0.088.
For IVSKSIEMYVQEASKQY [RPN2] the same measures were 2.53 ± 0.087, 2.98 ± 0.1, 1.54 ± 0.088 and 2.68 ± 0.1.
For the sequence IVSPQSNKPCMGIVQDT [RPO21], the protein stability index stood at 1.74 ± 0.064 (doa10∆), 1.68 ± 0.047 (pdr5∆), 1.76 ± 0.098 (san1∆) and 1.58 ± 0.046 (ubr1∆).
For IVTEQPSAEIREAYIEN [SWP82] the same measures were 2.47 ± 0.062, 2.88 ± 0.062, 2.74 ± 0.073 and 2.2 ± 0.065.
The matching figures for IVTPVEKAVEEKPAVKS [RPT3]: 2.6 ± 0.1, 3.07 ± 0.064, 3.17 ± 0.051 and 3.13 ± 0.086.
For IVVLVPKFGVEGLIRLD [DIS3] the same measures were 2.16 ± 0.07, 2.41 ± 0.063, 2.31 ± 0.085 and 2 ± 0.054.
As to IYLSQNELTDAIALAVR [RPN1], the protein stability index came out at 2.58 ± 0.045 (doa10∆), 2.67 ± 0.052 (pdr5∆), 2.88 ± 0.039 (san1∆) and 2.59 ± 0.032 (ubr1∆).
The matching figures for IYRYDEMSNKVLKVDKR [BRR2]: 2.97 ± 0.042, 3.09 ± 0.051, 2.96 ± 0.038 and 2.84 ± 0.047.
For IYYTPAFFHLFASLRVL [YJL039C/NUP192] the same measures were 1.73 ± 0.08, 1.71 ± 0.081, 1.43 ± 0.13 and 1.75 ± 0.083.
The matching figures for KAAGLTAAYARTIGIAV [RPL13A]: 1.56 ± 0.077, 1.46 ± 0.059, 1.22 ± 0.11 and 1.38 ± 0.089.
In the case of KADTDTLLYEQIIQRDK [SNF5], the protein stability index came to 3.23 ± 0.11 (doa10∆), 3.37 ± 0.11 (pdr5∆), 3.21 ± 0.062 (san1∆) and 3.29 ± 0.064 (ubr1∆).
The matching figures for KAEKTLKSTKHSISEAE [SMC4]: 2.57 ± 0.068, 1.99 ± 0.058, 1.92 ± 0.063 and 2.5 ± 0.044.
For KAEYVDQYDAERDFYHS [RPO31] the same measures were 2.75 ± 0.061, 2.97 ± 0.1, 3.23 ± 0.097 and 3.16 ± 0.06.
For KAGKITTIEEIFLHSLP [RPS2] the same measures were 2.8 ± 0.11, 2.69 ± 0.12, 2.52 ± 0.082 and 2.94 ± 0.066.
For the sequence KAGLMTGGISGDANNRW [SMC1], the protein stability index (doa10∆) worked out at 2.38 ± 0.11, the protein stability index (pdr5∆) amounted to 2.31 ± 0.088, the protein stability index (san1∆) was determined as 2.54 ± 0.062 and the protein stability index (ubr1∆) worked out at 2.51 ± 0.074.
The matching figures for KAGRAFHKYRLKRNSWP [RPL2A]: 2.87 ± 0.082, 2.88 ± 0.063, 2.13 ± 0.058 and 2.05 ± 0.064.
For KAGVKESDTGLAPSHLW [RPT1], the protein stability index came out at 2.93 ± 0.16 (doa10∆) and 3.09 ± 0.12 (san1∆).

The values above are taken from the supplement of paper PMC9732359.
